{"source": "paper PMC7143316", "origin": "cited, not measured here", "key": {"Kv1.3 (Homo sapiens)": {"biological_target": "Kv1.3 (Homo sapiens) (UniProt P22001)", "sequence (P22001 whole entry)": "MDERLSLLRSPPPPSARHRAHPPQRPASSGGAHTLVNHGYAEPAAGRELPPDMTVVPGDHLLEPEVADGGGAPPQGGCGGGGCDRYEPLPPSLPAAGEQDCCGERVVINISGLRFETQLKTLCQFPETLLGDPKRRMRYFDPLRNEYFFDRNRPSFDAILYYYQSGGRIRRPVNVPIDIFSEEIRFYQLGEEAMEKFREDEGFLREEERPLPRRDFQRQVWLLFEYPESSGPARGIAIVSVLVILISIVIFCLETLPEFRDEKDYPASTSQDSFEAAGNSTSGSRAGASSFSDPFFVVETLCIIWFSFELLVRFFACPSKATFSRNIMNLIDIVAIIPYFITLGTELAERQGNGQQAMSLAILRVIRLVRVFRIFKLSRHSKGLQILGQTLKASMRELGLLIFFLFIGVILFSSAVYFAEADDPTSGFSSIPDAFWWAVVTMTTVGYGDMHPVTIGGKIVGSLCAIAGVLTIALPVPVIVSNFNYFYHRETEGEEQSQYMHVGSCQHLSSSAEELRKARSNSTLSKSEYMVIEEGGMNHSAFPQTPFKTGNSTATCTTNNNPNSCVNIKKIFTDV"}, "Kv1.2 (Homo sapiens)": {"biological_target": "Kv1.2 (Homo sapiens) (UniProt P16389)", "sequence (P16389 whole entry)": "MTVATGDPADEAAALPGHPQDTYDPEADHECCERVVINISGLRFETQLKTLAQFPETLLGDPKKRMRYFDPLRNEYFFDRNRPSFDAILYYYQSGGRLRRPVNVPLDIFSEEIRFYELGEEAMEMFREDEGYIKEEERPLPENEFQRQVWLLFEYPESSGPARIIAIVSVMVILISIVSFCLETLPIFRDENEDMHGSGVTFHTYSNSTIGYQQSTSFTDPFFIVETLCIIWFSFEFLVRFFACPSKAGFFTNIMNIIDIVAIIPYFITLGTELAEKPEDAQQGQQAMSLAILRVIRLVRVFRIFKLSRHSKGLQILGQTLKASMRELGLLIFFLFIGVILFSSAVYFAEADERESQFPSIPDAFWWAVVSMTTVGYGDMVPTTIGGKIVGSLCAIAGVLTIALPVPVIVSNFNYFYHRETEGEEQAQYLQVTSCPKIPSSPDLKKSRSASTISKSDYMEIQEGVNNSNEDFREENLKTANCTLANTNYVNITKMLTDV"}, "Kv1.1 (Homo sapiens)": {"biological_target": "Kv1.1 (Homo sapiens) (UniProt Q09470)", "sequence (Q09470 whole entry)": "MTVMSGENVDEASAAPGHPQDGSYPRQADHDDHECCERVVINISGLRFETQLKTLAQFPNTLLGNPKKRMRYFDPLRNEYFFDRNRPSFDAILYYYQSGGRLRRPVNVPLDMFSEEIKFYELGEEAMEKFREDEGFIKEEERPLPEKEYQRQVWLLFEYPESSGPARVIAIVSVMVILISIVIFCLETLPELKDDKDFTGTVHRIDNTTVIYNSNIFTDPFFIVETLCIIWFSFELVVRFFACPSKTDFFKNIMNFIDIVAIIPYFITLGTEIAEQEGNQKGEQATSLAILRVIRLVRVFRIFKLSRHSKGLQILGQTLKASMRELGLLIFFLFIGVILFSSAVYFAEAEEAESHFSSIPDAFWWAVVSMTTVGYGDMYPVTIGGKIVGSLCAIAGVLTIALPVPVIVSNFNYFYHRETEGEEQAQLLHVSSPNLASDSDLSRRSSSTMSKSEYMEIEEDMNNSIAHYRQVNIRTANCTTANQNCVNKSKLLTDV"}}}
{"substance": "BgK (from UniProt P29186)", "values": [{"measurement": "Kd", "setting": "Kv1.3 (Homo sapiens)", "result": 0.01, "unit": "µM"}, {"measurement": "Kd", "setting": "Kv1.2 (Homo sapiens)", "result": 0.015, "unit": "µM"}, {"measurement": "Kd", "setting": "Kv1.1 (Homo sapiens)", "result": 0.006, "unit": "µM"}]}
